The values that follow come from patent publication US12329806B2, “Compound for modulating rlr, tlr, oas and/or oncostatin m pathways, use thereof for preparing a medicine, composition, method for modulating said pathways and method of treatment” (Instituto Butantan, priority 2018, dated 2025).

The test system of one assay is Mia-PaCa-2 cells. Briefly: Cell viability tests (survival rate), previous experiment. It is filed as cell-based, human. Particulars: rounded values. The text has this:
(§1) ER stress also promotes mitochondrial dysfunction, Cytochrome c release, PARP cleavage, Ca+^2 mobilization and caspase activation in SK-MEL-28 and Mia-PaCa-2 cells, positively regulating CASP3. The survival rate of the previous experiment, calculated using cell viability tests, is herein summarized: Mia-PaCa-2 67%, SK-MEL-28 44%, SK-MEL-5 42%, non-tumoral human fibroblasts 100% (rounded values). These numbers indicate that part of the cells possibly survives through a positive unfolded protein response (UPR) and part dies. […] Furthermore, autophagy could also be evoked to recover a global tissue homeostasis, and, in this case, there is the signature of immunogenic cell death (ICD). It is believed that the ICD could explain this.

The next assay has as its system SK-MEL-28 cells. The assay is described as above. It counts as cell-based, human. Particulars: rounded values.
Description: as §1

B1: Amblyomin-X: recombinant Kunitz type protein identified in a cDNA library of Amblyomma sculptum tick salivary glands (protein)
chain: MRQLAVLALVIFTGMCVESQSANSKAVCNLPKLAGDETCSNKTEIRWYYNGTACEAFIFKGCGGNDNNFDRVDDCQRLCEEQTHFHFESPKLICFKVQDYWILNDIMKKNLTGISLKSEEEDADSGEID
modifications: Amblyomin-X
notes: recombinant Kunitz type protein identified in a cDNA library of Amblyomma sculptum tick salivary glands
Consider B1, for which the values for the survival rate with Mia-PaCa-2 cells and with SK-MEL-28 cells were 67% and 44%, respectively.
